Test results taken from the supplement of paper PMC10724198.
± gives the standard deviation of the averaged measurements.

The sequences below were run on Saccharomyces cerevisiae (assay: protein stability index of tFT-peptide fusion (C-terminal peptide) (PSI (0-1 scale)); higher = more stable (slower turnover)). Details: genetic background: das1 deletion; temperature: 37 C.
Protocol: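 MPS profiling in S. cerevisiae of the tFT-X12 degron library: putative degron peptides plus stable controls, 12 aa, fused to the C-terminus of a sfGFP-mCherry timer. Cells are FACS-sorted into 8 mCherry/sfGFP bins and deep-sequenced. PSI runs from 0 (unstable) to 1 (stable). Backgrounds are wild type, das1Δ and doa10Δ at 30 °C, and wild type, das1Δ, cdc34-1 and cdc53-1 at 37 °C; 2-3 technical replicates each.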
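Further: PSI is a weighted mean of sequencing reads over stability bins, variants kept only with over 10 reads, mCherry proximal and sfGFP distal, peptide attached via GGGS linker.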

First: LLSLPTTNLMAF
Second: LLTLILRIFVLN
The protein stability index of the first is higher: 0.615 ± 0.0099 for the first, 0.476 ± 0.028 for the second.

LLVFFLAIPSLV and LLVFSLLYPCLV are within error of each other in protein stability index: 0.413 ± 0.0073 for the first, 0.419 ± 0.013 for the second.

First: LLVIAIKVPANS
Second: LLVYLYFFFSCS
The protein stability index of the first is higher: 0.507 ± 0.018 for the first, 0.484 ± 0.005 for the second.

First: LLYHFCLFFFRE
Second: LMVLISVMFSLG
The protein stability index of the first is higher: 0.619 ± 0.014 for the first, 0.292 ± 0.012 for the second.

First: LMWVFPRVVWLY
Second: LPLHTLLLCPPV
The protein stability index of the first is lower: 0.321 ± 0.022 for the first, 0.4988 ± 0.003 for the second.

Compared with LPLVFYCFLLHS, LPVPVLGFPPLA is higher in protein stability index: 0.518 ± 0.0063 for the first, 0.732 ± 0.032 for the second.

Going from LRCCGALPLYAY to LRFFYFLHFCIL, the protein stability index rises from 0.3968 ± 0.0033 to 0.504 ± 0.0076.

Going from LRRVHRIKLQVC to LRVAWVCISIVA, the protein stability index falls from 0.477 ± 0.014 to 0.164 ± 0.0029.

Compared with LRVPCPPCCVFV, LSQPGWFKCCLS is higher in protein stability index: 0.727 ± 0.0099 for the first, 0.7677 ± 0.00079 for the second.

Compared with LSRFRYFVLTSL, LSVSEILAVKCG is lower in protein stability index: 0.698 ± 0.033 for the first, 0.592 ± 0.026 for the second.

Going from LTACRYVCFLLF to LTFRFGVNPYVF, the protein stability index rises from 0.676 ± 0.037 to 0.752 ± 0.024.

Compared with LVLELYRFARFG, LVLFVVGGWVSL is lower in protein stability index: 0.742 ± 0.015 for the first, 0.551 ± 0.014 for the second.

Going from LVSLCYAYPRYC to LVVAVLKIIMSS, the protein stability index falls from 0.7025 ± 0.0052 to 0.349 ± 0.013.

First: LWFLDYVFICFL
Second: LWFRCVRMQACR
The protein stability index of the first is lower: 0.452 ± 0.012 for the first, 0.5101 ± 0.0028 for the second.

First: LWLFIVCWVGCV
Second: LWLVSLLVLWLT
The protein stability index of the first is lower: 0.339 ± 0.014 for the first, 0.439 ± 0.011 for the second.

Compared with LWNFYELVVYAM, LYLFKVLFFRVF is higher in protein stability index: 0.153 ± 0.04 for the first, 0.458 ± 0.06 for the second.

Sequence LYYSVIFLFLSW has a protein stability index of 0.371 ± 0.016.

Same assay, conditions: genetic background: doa10 deletion; temperature: 30 C

First: LLSLPTTNLMAF
Second: LLTLILRIFVLN
The protein stability index of the first is higher: 0.356 ± 0.02 for the first, 0.144 ± 0.01 for the second.

Going from LLVFFLAIPSLV to LLVFSLLYPCLV, the protein stability index rises from 0.195 ± 0.014 to 0.241 ± 0.0036.

Compared with LLVIAIKVPANS, LLVYLYFFFSCS is lower in protein stability index: 0.337 ± 0.036 for the first, 0.2414 ± 0.0016 for the second.

First: LLYHFCLFFFRE
Second: LMVLISVMFSLG
The protein stability index of the first is higher: 0.441 ± 0.015 for the first, 0.113 ± 0.013 for the second.

First: LMWVFPRVVWLY
Second: LPLHTLLLCPPV
The protein stability index of the first is lower: 0.0838 ± 0.0041 for the first, 0.345 ± 0.0046 for the second.

Going from LPLVFYCFLLHS to LPVPVLGFPPLA, the protein stability index rises from 0.386 ± 0.01 to 0.659 ± 0.027.

Going from LRCCGALPLYAY to LRFFYFLHFCIL, the protein stability index rises from 0.189 ± 0.014 to 0.256 ± 0.0083.

Compared with LRRVHRIKLQVC, LRVAWVCISIVA is lower in protein stability index: 0.0938 ± 0.0029 for the first, 0.0363 ± 0.011 for the second.

LRVPCPPCCVFV and LSQPGWFKCCLS are within error of each other in protein stability index: 0.33 ± 0.015 for the first, 0.308 ± 0.023 for the second.

Compared with LSRFRYFVLTSL, LSVSEILAVKCG is higher in protein stability index: 0.146 ± 0.015 for the first, 0.363 ± 0.0039 for the second.

Going from LTACRYVCFLLF to LTFRFGVNPYVF, the protein stability index falls from 0.239 ± 0.0088 to 0.132 ± 0.0056.

First: LVLELYRFARFG
Second: LVLFVVGGWVSL
The protein stability index of the first is lower: 0.2704 ± 0.00045 for the first, 0.279 ± 0.0085 for the second.

Going from LVSLCYAYPRYC to LVVAVLKIIMSS, the protein stability index falls from 0.2577 ± 0.00032 to 0.0697 ± 0.012.

Going from LWFLDYVFICFL to LWFRCVRMQACR, the protein stability index rises from 0.3673 ± 0.0034 to 0.42 ± 0.025.

Compared with LWLFIVCWVGCV, LWLVSLLVLWLT is higher in protein stability index: 0.1847 ± 0.00077 for the first, 0.239 ± 0.0059 for the second.

LWNFYELVVYAM and LYLFKVLFFRVF are within error of each other in protein stability index: 0.103 ± 0.021 for the first, 0.0857 ± 0.0067 for the second.

Sequence LYYSVIFLFLSW has a protein stability index of 0.272 ± 0.036.
